The test system of this data set is MS2 coat protein. In words: apparent KD of MS2 coat protein; designed switch direction (-1 OFF switch, 1 ON switch): 1; higher = weaker reporter binding. In outline:
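Apparent KD, taken as the median over clusters for each design, was obtained by curve-fitting normalised cluster fluorescence. Designed RNA switches had been transcribed on Illumina chips by stalled E. coli RNA polymerase and titrated with SNAP-549-labelled MS2 coat protein, doubling from 0.7 or 1.5 nM to 3 µM.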

The mark [1] stands for this setting: Eterna round: R95, input ligand: FMN 200 uM.
Setting [2] is: Eterna round: R95, input ligand: microRNA oligo, concentration not stated.
Where [3] appears, read: Eterna round: R95, input ligand: none.
The mark [4] stands for this setting: input ligand: microRNA oligo, concentration not stated.

In the case of “GGAGCCGGCACUGAGGAUAUUCAUAUUAAAACAUGAGGAUCACCCAUGUAGGCCAGAAGGCCUUGGGAGAAGGCGGGUCGACUCG [Diqureveri - 1] (puzzle: Same State 2)”, the “apparent KD of MS2 coat protein” value is, setting by setting: under setting [1], 29.7 nM; under setting [2], 523 nM; under setting [3], 371 nM.

Consider “GGAGCCGGCACUGAGGAUAUUCGUAUUAAAACAUGAGGAUCACCCAUGUAGGCCAGAAGGCCUUGGGAGAAGGCAGGUCGACUCG [Diqureveri - 2] (puzzle: Same State 2)”, for which the “apparent KD of MS2 coat protein” value reads like this: under setting [1], 17.2 nM; under setting [2], 38.9 nM; under setting [3], 59.7 nM.

Regarding “GGAGCCGGCCUAGGAUAUUUCAUAAAUUAACAUGAGGAUCACCCAUGUAGGCCAGAAGGCCUUGGGAAGAAGGAGGUCGGCUCC [Loop Effect - U27,U28] (Eterna round: R96, puzzle: Same State NG 2)”, the “apparent KD of MS2 coat protein” value worked out at 16.8 nM (input ligand: FMN 200 uM), 37.7 nM under setting [4] and 51.4 nM (input ligand: none).

With “GGAGCCGGCCUAGGAUAUUUCAUAACAAAACAUGAGGAUCACCCAUGUAGGCCAGAAGGCCUUGGGAAGAAGGAGGUCGGCUCC [Loop Effect - C26] (Eterna round: R96, puzzle: Same State NG 2)”, the “apparent KD of MS2 coat protein” value under setting [4] stood at 18.9 nM.

With “GGAGCCGGUACUGAGGAUAUUCAUAUUAAAACAUGAGGAUCACCCAUGUAGGCCAGAAGGCCUUGGGAGAAGGCAGGCCAGCUCG [Atgexeedri - 4] (Eterna round: R96, puzzle: Same State 2)”, the “apparent KD of MS2 coat protein” value came to 24.7 nM (input ligand: FMN 200 uM), 177 nM under setting [4] and 268 nM (input ligand: none).

Regarding “GGAGCCGGUACUGAGGAUAUUCAUAUUAAAACAUGAGGAUCACCCAUGUAGGCCAGAAGGCCUUGGGAGAAGGCAGGCCAGCUCG [Atgexeedri - 4] (puzzle: Same State 2)”, the “apparent KD of MS2 coat protein” value amounted to 20.2 nM under setting [1], 270 nM under setting [2] and 458 nM under setting [3].

As for “GGAGCCGGUACUGAGGAUAUUCAUAUUAAAACAUGAGGAUCACCCAUGUGGGCCAGAAGGCCUUGGGAGAAGGCAGACCAGCUCG [Atgexeedri - 3] (Eterna round: R96, puzzle: Same State 2)”, the “apparent KD of MS2 coat protein” value amounted to 18.2 nM (input ligand: FMN 200 uM), 108 nM under setting [4] and 156 nM (input ligand: none).

As for “GGAGCCGGUACUGAGGAUAUUCAUAUUAAAACAUGAGGAUCACCCAUGUGGGCCAGAAGGCCUUGGGAGAAGGCAGACCAGCUCG [Atgexeedri - 3] (puzzle: Same State 2)”, the “apparent KD of MS2 coat protein” value was found to be 15.4 nM under setting [1], 115 nM under setting [2] and 177 nM under setting [3].

Regarding “GGAUGAUUGACAGGAUAUCAUUUGUAAAUUCGUUGAGAAGGGUCGAUUACUUACACGACGUGUUACAUGAGGAUCACCCAUGUU [SameState NG1 #4] (Eterna round: R96, puzzle: Same State NG 1)”, the “apparent KD of MS2 coat protein” value reads like this: (input ligand: FMN 200 uM) 117 nM; under setting [4], 101 nM; (input ligand: none) 185 nM.

With “GGCAAUAUCACAGGAUAUUGGAAAGGAAGUGUACAAGAAGGGUGAUAGGGCCUCAGCAACAUGAGGAUCACCCAUGUACUGAGC [PowerStrip SSNG 1.10] (Eterna round: R96, puzzle: Same State NG 1)”, the “apparent KD of MS2 coat protein” value by setting is: (input ligand: FMN 200 uM) 62.6 nM; under setting [4], 13.5 nM; (input ligand: none) 40.8 nM.

For “GGCUGCGUUGUGAAGGAUAUCCGCGUCUGGACAUGAGGAUCACCCAUGUAUGCUUGGAUCAUGCCGGAGAAGGUCACGAAUGAUU [JR_SS002_Sub1214] (Eterna round: R96, puzzle: Same State 2)”, the “apparent KD of MS2 coat protein” value (input ligand: FMN 200 uM) was determined as 17 nM, the “apparent KD of MS2 coat protein” value under setting [4] was 19.9 nM and the “apparent KD of MS2 coat protein” value (input ligand: none) stood at 32.9 nM.

For the sequence “GGGCCAGCCUGUGCUGGGCCUUAGCAUGCACAUGAGGAUCACCCAUGUCGUGUACAUGCUUUUUGCUCGUCUUUAAA [Photon Torp-09] (puzzle: Sensor for hsa-mir-208a)”, the “apparent KD of MS2 coat protein” value runs as follows: under setting [1], 79.2 nM; under setting [2], 15.6 nM; under setting [3], 93.2 nM.

Turning to “GGGCCAGCCUGUGCUGGGCUUUAGCAUGUACAUGAGGAUCACCCAUGUCGUGUACAUGCUUUUUGCUCGUCUUUAAA [Photon Torp-07] (puzzle: Sensor for hsa-mir-208a)”, the “apparent KD of MS2 coat protein” value runs as follows: under setting [1], 70.5 nM; under setting [2], 22.5 nM; under setting [3], 100 nM.

For “GGGUGUGGAAGGAAAGACAGGGAAAGGAAACAUGAGGAUCACCCAUGUGAAGGAAGAAAGGGAGCUCGUCUUAUAAG [JR_SHM208A_Sub002] (puzzle: Sensor for hsa-mir-208a)”, the “apparent KD of MS2 coat protein” value under setting [1] turned out to be 26 nM, the “apparent KD of MS2 coat protein” value under setting [2] was found to be 27.6 nM and the “apparent KD of MS2 coat protein” value under setting [3] came to 35 nM.

In the case of “GGUACCAUCACAGGAUAUGCUAUCCUUUGGGUAGCAGAAGGGUGAUACAUGAGGAUCACCCAUGUGGUGCCAGGGCGUGAGCCC [JL SSNG1 1.91] (Eterna round: R96, puzzle: Same State NG 1)”, the “apparent KD of MS2 coat protein” value (input ligand: FMN 200 uM) worked out at 901 nM, the “apparent KD of MS2 coat protein” value under setting [4] was found to be 44.5 nM and the “apparent KD of MS2 coat protein” value (input ligand: none) was found to be 331 nM.

Take “GGUAUCUCCCGUGAGGAUAUGCGGCGUAGAACAUGAGGAUCACCCAUGUCCUUCGAAUGGGUUACGCAGAAGGCACGACGGUACC [Robot Leg #2] (puzzle: Same State 2)”: the “apparent KD of MS2 coat protein” value under setting [2] came out at 24.5 nM.

“GGUCCAGCCUGAGCUGGACAAAAGCAUGUACAUGAGGAUCACCCAUGUCAUGUACAAGCUUUUUGCUCGUCUAAAGG [Mat - hsa-mir-208a - 92] (puzzle: Sensor for hsa-mir-208a)”: the “apparent KD of MS2 coat protein” value was determined as 726 nM under setting [1], 23.8 nM under setting [2] and 586 nM under setting [3].

On to “GGUCCAGCCUGAGCUGGACAAAAGCAUGUACAUGAGGAUCACCCAUGUCAUGUACAAGUUUUUUGCUCGUCUUAAAA [JL mod - D87 - 12] (puzzle: Sensor for hsa-mir-208a)”, for which the “apparent KD of MS2 coat protein” value is, setting by setting: under setting [1], 35.3 nM; under setting [2], 10.6 nM; under setting [3], 38.7 nM.

Turning to “GGUCCAGCCUGAGCUGGACAAAAGCAUGUACAUGAGGAUCACCCAUGUUCAUGUACAAGCUUUUUGCUCGUCUUGCA [salish99_208a_r3_110x] (puzzle: Sensor for hsa-mir-208a)”, the “apparent KD of MS2 coat protein” value amounted to 639 nM under setting [1], 15.5 nM under setting [2] and 706 nM under setting [3].

In the case of “GGUCCAGCCUGAGCUGGACGAAAGUAUGUACAUGAGGAUCACCCAUGUCAUGUAUAAGUUUUUUGUUUGUCUUGAAA [Sensorship 2 - Jieux - Sensor for hsa-mir-208a] (puzzle: Sensor for hsa-mir-208a)”, the “apparent KD of MS2 coat protein” value reads like this: under setting [1], 22.4 nM; under setting [2], 11.2 nM; under setting [3], 22.7 nM.

For the sequence “GGUCUAGUUACAGGAUAUGCAUUGCUUUGCGAUGCAGAAGGGUGGUAACAUGAGGAUCACCCAUGUGGGCCAGCGCAAAAGCGC [JL SSNG1 cdp] (Eterna round: R96, puzzle: Same State NG 1)”, the “apparent KD of MS2 coat protein” value worked out at 981 nM (input ligand: FMN 200 uM), 661 nM under setting [4] and 1440 nM (input ligand: none).

Turning to “GGUGACUUAAGAGGAUAUCCCGUAACAUUCGUCGAUACGAGACAUGAGGAUCACCCAUGUGAAAUGGAGAAGGCUUUCGCAAAG [Eternabot solution 48] (Eterna round: R96, puzzle: Same State NG 2)”, the “apparent KD of MS2 coat protein” value is, setting by setting: (input ligand: FMN 200 uM) 52.7 nM; under setting [4], 40 nM; (input ligand: none) 58.2 nM.

In the case of “GGUGCCAAAUAAGCCUACAUGAGGAUCACCCAUGUAUGUAGGCAGGAUAUCGUAUGCAAAGCAUACGAGAAGGGCCGAGGCACC [Mat - Same State NG 3 - JL Mod - D57] (Eterna round: R96, puzzle: Same State NG 3)”, the “apparent KD of MS2 coat protein” value by setting is: (input ligand: FMN 200 uM) 23.8 nM; under setting [4], 29.3 nM; (input ligand: none) 47.1 nM.

Consider “GGUGGGUUACUACCAACACAUGAGGAUCACCCAUGUUUUGGGAAGGAUAUGGUACCUAUUUGGUACCAGAAGGUCCAGUUAAUG [salish99_SSNG3_r04_702] (Eterna round: R96, puzzle: Same State NG 3)”, for which the “apparent KD of MS2 coat protein” value is 51.4 nM (input ligand: FMN 200 uM), 29.5 nM under setting [4] and 41.7 nM (input ligand: none).

Turning to “GGUGGGUUACUACCAACACAUGAGGAUCACCCAUGUUUUGGGAAGGAUAUGGUACCUAUUUGGUACCAGAAGGUCCUGUUGGUG [salish99_SSNG3_r04_706] (Eterna round: R96, puzzle: Same State NG 3)”, the “apparent KD of MS2 coat protein” value is, setting by setting: (input ligand: FMN 200 uM) 36.6 nM; under setting [4], 105 nM; (input ligand: none) 116 nM.

Turning to “GGUGGGUUGCUGCCGGCACAUGAGGAUCACCCAUGUUUUGGGAAGGAUAUGGUACCUAUUUGGUGCCAGAAGGUCCCGUUGGUG [salish99_SSNG3_r04_710] (Eterna round: R96, puzzle: Same State NG 3)”, the “apparent KD of MS2 coat protein” value came to 402 nM (input ligand: FMN 200 uM), 376 nM under setting [4] and 480 nM (input ligand: none).

Consider “GUACAACAUGAGGAUCACCCAUGUAUAUAUAUACGAGGAUAUGCAUGUACGAAAGUAUAUGCAGAAGGCGUUGUAC [Pin2Pin] (puzzle: Same State 1)”, for which the “apparent KD of MS2 coat protein” value under setting [2] was found to be 75.4 nM.

With “GUAGAUAUAACGGAGGAUAUUCAAUGAGAGACAUGAGGAUCACCCAUGUGAGAGUGAGAUGAUAGGAAGAAGGCUGAGAGAGAUG [Altered State 2-7 - Jieux - Same State 2] (puzzle: Same State 2)”, the “apparent KD of MS2 coat protein” value reads like this: under setting [1], 94.2 nM; under setting [2], 70.3 nM; under setting [3], 64.7 nM.

(Values after the supplement of paper PMC9170038.)
